Data on four substances can be found in PMC8801479.

For test [1], the target named is anti-Müllerian hormone growth factor (AMH GF), the mature C-terminal domain (human) (UniProt P03971). Briefly: ELISA; AMHR2-Fc/Fc captured on goat antihuman Fc Ab on the plate; c-AMH 0.03 to 52.83 nM; bound AMH detected with nonbiotinylated mAb-C1 or mAb-N1 and antimouse-Fc-HRP, added one by one or as a preformed complex; data fit globally to the equations of Perelson and DeLisi for ligand-induced receptor dimerization, with the quadratic equation for K_mono and Kbi; [R0] = 0.1 nM.

For test [2] the target is unchanged. Briefly: ELISA; c-AMH diluted to 1 ng/ml (8.8 pM) in PBS with 1% BSA and 1% goat serum, 10 days at room temperature; ELISA that detects only intact complex; Kd calculated from the fraction of intact complex.
A further test has as its target the GF and c-AMH. Description: ELISA; c-AMH or GF captured on mAb-C1; various concentrations of AMHR2-Fc/Fc in solution; bound AMHR2-Fc/Fc detected with antihuman-Fc Ab conjugated to HRP; quadratic fit.
Test [3] deals with activin A growth factor growth factor domain (Homo sapiens) (UniProt P08476). The conditions noted are these: cited from earlier work.
Test [4] deals with AMHR2-Fc/Fc, heterodimer of one AMHR2-Fc chain (extracellular domain of human AMHR2 fused to human IgG1 Fc) disulfide bonded to one Fc-only chain (human) (UniProt Q16671). Briefly: ELISA; AMHR2-Fc/Fc (0.75 ug/ml) captured on goat antihuman Fc Ab coated on the plate; c-AMH or GF serially diluted, 2 to 4 h; bound AMH detected with biotinylated mAb-C1 (GF) or mAb-N1 (prodomain) and SA-HRP; data fit to the quadratic equation for a reversible association reaction.

Test [5] shares this target. Description: ELISA; AMHR2-Fc/Fc captured on goat antihuman Fc Ab on the plate; c-AMH 0.03 to 52.83 nM; bound AMH detected with nonbiotinylated mAb-C1 or mAb-N1 and antimouse-Fc-HRP, added one by one or as a preformed complex; data fit globally to the equations of Perelson and DeLisi for ligand-induced receptor dimerization, with the quadratic equation for K_mono and Kbi; [R0] = 0.1 nM.

anti-Müllerian hormone growth factor (AMH GF), the mature C-terminal domain (human), sequence (P03971 452-560): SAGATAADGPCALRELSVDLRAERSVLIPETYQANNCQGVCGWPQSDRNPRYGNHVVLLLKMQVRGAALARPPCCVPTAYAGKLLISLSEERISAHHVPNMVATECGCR
cleaved anti-Müllerian hormone (c-AMH), the noncovalent complex of the AMH prodomain with the AMH growth factor, sequence (P03971 25-451 limits assumed): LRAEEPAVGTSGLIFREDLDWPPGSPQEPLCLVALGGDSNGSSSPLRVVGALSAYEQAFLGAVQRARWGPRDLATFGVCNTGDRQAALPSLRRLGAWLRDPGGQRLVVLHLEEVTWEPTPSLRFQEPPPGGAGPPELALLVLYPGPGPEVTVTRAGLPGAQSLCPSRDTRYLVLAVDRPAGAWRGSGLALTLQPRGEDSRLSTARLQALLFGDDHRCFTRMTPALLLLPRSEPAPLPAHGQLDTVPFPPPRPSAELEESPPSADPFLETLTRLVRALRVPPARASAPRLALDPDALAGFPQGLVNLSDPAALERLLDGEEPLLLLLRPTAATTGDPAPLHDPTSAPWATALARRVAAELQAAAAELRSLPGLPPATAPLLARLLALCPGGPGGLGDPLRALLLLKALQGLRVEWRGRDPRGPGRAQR
cleaved anti-Müllerian hormone (c-AMH), the noncovalent complex of the AMH prodomain with the AMH growth factor, sequence (P03971 452-560 limits assumed): as the sequence (P03971 452-560) above
activin A prodomain prodomain, sequence (P08476 21-310): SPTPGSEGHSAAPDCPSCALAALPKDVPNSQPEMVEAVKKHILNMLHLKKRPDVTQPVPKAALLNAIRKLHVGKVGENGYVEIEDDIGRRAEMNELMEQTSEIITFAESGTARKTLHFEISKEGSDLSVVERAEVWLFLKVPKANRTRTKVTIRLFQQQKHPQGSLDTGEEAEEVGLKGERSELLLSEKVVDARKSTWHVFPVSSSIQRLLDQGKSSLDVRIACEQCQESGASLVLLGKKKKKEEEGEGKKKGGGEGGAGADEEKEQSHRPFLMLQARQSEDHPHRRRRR
activin A growth factor growth factor domain (Homo sapiens), sequence (P08476 311-426): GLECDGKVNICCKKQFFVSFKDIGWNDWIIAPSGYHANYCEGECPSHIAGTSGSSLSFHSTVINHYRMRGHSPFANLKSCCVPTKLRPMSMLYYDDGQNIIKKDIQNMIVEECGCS

For “anti-Müllerian hormone prodomain (N-terminal prodomain of c-AMH) (domain or fragment)”, in test [1], the KT (apparent dissociation constant of the receptor-bound AMH complex, at [R0] = 100 pM), at 0.03 nM c-AMH stood at 7.5 pM; the KT (apparent dissociation constant of the receptor-bound AMH complex, at [R0] = 100 pM), at 0.05 nM c-AMH stood at 22.1 pM; the KT (apparent dissociation constant of the receptor-bound AMH complex, at [R0] = 100 pM), at 0.10 nM c-AMH was 24.3 pM; the KT (apparent dissociation constant of the receptor-bound AMH complex, at [R0] = 100 pM), at 0.21 nM c-AMH is 36.6 pM. In addition, in test [1], the KT (apparent dissociation constant of the receptor-bound AMH complex, at [R0] = 100 pM), at 0.41 nM c-AMH is 38.7 pM; the KT (apparent dissociation constant of the receptor-bound AMH complex, at [R0] = 100 pM), at 0.83 nM c-AMH came out at 45.3 pM; the KT (apparent dissociation constant of the receptor-bound AMH complex, at [R0] = 100 pM), at 1.65 nM c-AMH came to 26.2 pM; the KT (apparent dissociation constant of the receptor-bound AMH complex, at [R0] = 100 pM), at 3.30 nM c-AMH amounted to 10 pM. Further, in test [1], the KT (apparent dissociation constant of the receptor-bound AMH complex, at [R0] = 100 pM), at 6.60 nM c-AMH came out at 6.1 pM; the KT (apparent dissociation constant of the receptor-bound AMH complex, at [R0] = 100 pM), at 13.21 nM c-AMH stood at 2.7 pM; the KT (apparent dissociation constant of the receptor-bound AMH complex, at [R0] = 100 pM), at 26.41 nM c-AMH; taken as a measure of K mono was 1 pM; the KT (apparent dissociation constant of the receptor-bound AMH complex, at [R0] = 100 pM), at 52.83 nM c-AMH; taken as a measure of K mono worked out at 0.8 pM. Besides, in test [1], the [NCT]/[RL + RLR], fraction-intact AMH complex, at 0.03 nM c-AMH came out at 0.29; the [NCT]/[RL + RLR], fraction-intact AMH complex, at 0.05 nM c-AMH came out at 0.234; the [NCT]/[RL + RLR], fraction-intact AMH complex, at 0.10 nM c-AMH turned out to be 0.271; the [NCT]/[RL + RLR], fraction-intact AMH complex, at 0.21 nM c-AMH was found to be 0.276. Besides, in test [1], the [NCT]/[RL + RLR], fraction-intact AMH complex, at 0.41 nM c-AMH turned out to be 0.347; the [NCT]/[RL + RLR], fraction-intact AMH complex, at 0.83 nM c-AMH was 0.386; the [NCT]/[RL + RLR], fraction-intact AMH complex, at 1.65 nM c-AMH amounted to 0.521; the [NCT]/[RL + RLR], fraction-intact AMH complex, at 3.30 nM c-AMH worked out at 0.688. Further, in test [1], the [NCT]/[RL + RLR], fraction-intact AMH complex, at 6.60 nM c-AMH is 0.767; the [NCT]/[RL + RLR], fraction-intact AMH complex, at 13.21 nM c-AMH turned out to be 0.845; the [NCT]/[RL + RLR], fraction-intact AMH complex, at 26.41 nM c-AMH was 0.903; the [NCT]/[RL + RLR], fraction-intact AMH complex, at 52.83 nM c-AMH was 0.917. In test [2], the Kd is 0.0004 nM and the intact complex left after 10 days at 8.8 pM, percent of samples diluted immediately before the assay was 80%.

On to “AMHR2-Fc/Fc, heterodimer of one AMHR2-Fc chain (extracellular domain of human AMHR2 fused to human IgG1 Fc) disulfide bonded to one Fc-only chain (from UniProt Q16671 18-149; P01857 104-330) (Fc fusion)”, for which the Kd in the test with the GF and c-AMH fell in the range of 3 to 4 nM.

Consider “activin A prodomain prodomain (from UniProt P08476)”, for which the dissociation constant (Kd) in test [3] was 5 nM.

For “cleaved anti-Müllerian hormone (c-AMH), the noncovalent complex of the AMH prodomain with the AMH growth factor (from UniProt P03971 452-560)”, the Kd in test [4] was 0.3 nM. In test [5], the K1 (dissociation constant of the initial monovalent binding step; fit of Figure 5C) was 1.1 nM; the K1 (dissociation constant of the initial monovalent binding step; fit of Figure 5D) was 1.1 nM; the [CT]/[R0], bound AMH without prodomain, estimate of [RLR]/[R0], at 0.03 nM c-AMH was 0.031; the [CT]/[R0], bound AMH without prodomain, estimate of [RLR]/[R0], at 0.05 nM c-AMH is 0.067. In test [5], the [CT]/[R0], bound AMH without prodomain, estimate of [RLR]/[R0], at 0.10 nM c-AMH was 0.091; the [CT]/[R0], bound AMH without prodomain, estimate of [RLR]/[R0], at 0.21 nM c-AMH is 0.147; the [CT]/[R0], bound AMH without prodomain, estimate of [RLR]/[R0], at 0.41 nM c-AMH was 0.206; the [CT]/[R0], bound AMH without prodomain, estimate of [RLR]/[R0], at 0.83 nM c-AMH was 0.284. In addition, in test [5], the [CT]/[R0], bound AMH without prodomain, estimate of [RLR]/[R0], at 1.65 nM c-AMH was 0.285; the [CT]/[R0], bound AMH without prodomain, estimate of [RLR]/[R0], at 3.30 nM c-AMH was 0.22; the [CT]/[R0], bound AMH without prodomain, estimate of [RLR]/[R0], at 6.60 nM c-AMH was 0.199; the [CT]/[R0], bound AMH without prodomain, estimate of [RLR]/[R0], at 13.21 nM c-AMH is 0.145. Moreover, in test [5], the [CT]/[R0], bound AMH without prodomain, estimate of [RLR]/[R0], at 26.41 nM c-AMH was 0.094; the [CT]/[R0], bound AMH without prodomain, estimate of [RLR]/[R0], at 52.83 nM c-AMH is 0.086; the [NCT]/[R0], intact AMH complex bound (mAb-N1), estimate of [RL]/[R0], at 0.03 nM c-AMH is 0.013; the [NCT]/[R0], intact AMH complex bound (mAb-N1), estimate of [RL]/[R0], at 0.05 nM c-AMH was 0.021. For the same substance, in test [5], the [NCT]/[R0], intact AMH complex bound (mAb-N1), estimate of [RL]/[R0], at 0.10 nM c-AMH was 0.034; the [NCT]/[R0], intact AMH complex bound (mAb-N1), estimate of [RL]/[R0], at 0.21 nM c-AMH was 0.056; the [NCT]/[R0], intact AMH complex bound (mAb-N1), estimate of [RL]/[R0], at 0.41 nM c-AMH was 0.109; the [NCT]/[R0], intact AMH complex bound (mAb-N1), estimate of [RL]/[R0], at 0.83 nM c-AMH was 0.178. In addition, in test [5], the [NCT]/[R0], intact AMH complex bound (mAb-N1), estimate of [RL]/[R0], at 1.65 nM c-AMH was 0.311; the [NCT]/[R0], intact AMH complex bound (mAb-N1), estimate of [RL]/[R0], at 3.30 nM c-AMH was 0.487; the [NCT]/[R0], intact AMH complex bound (mAb-N1), estimate of [RL]/[R0], at 6.60 nM c-AMH is 0.654; the [NCT]/[R0], intact AMH complex bound (mAb-N1), estimate of [RL]/[R0], at 13.21 nM c-AMH was 0.794. In test [5], the [NCT]/[R0], intact AMH complex bound (mAb-N1), estimate of [RL]/[R0], at 26.41 nM c-AMH was 0.871; the [NCT]/[R0], intact AMH complex bound (mAb-N1), estimate of [RL]/[R0], at 52.83 nM c-AMH is 0.941; the [R0]/K2 (second, bivalent binding step; dimensionless) is 6; the [R0]/K2 (second, bivalent binding step; dimensionless; fit of Figure 5C) was found to be 3.7. In test [5], this substance returned a [R0]/K2 (second, bivalent binding step; dimensionless; fit of Figure 5D) of 4.9; a [RL+2RLR]/[R0], fraction-receptor occupancy, at 0.03 nM c-AMH of 0.103; a [RL+2RLR]/[R0], fraction-receptor occupancy, at 0.05 nM c-AMH of 0.163; a [RL+2RLR]/[R0], fraction-receptor occupancy, at 0.10 nM c-AMH of 0.254. Besides, in test [5], the [RL+2RLR]/[R0], fraction-receptor occupancy, at 0.21 nM c-AMH was 0.386; the [RL+2RLR]/[R0], fraction-receptor occupancy, at 0.41 nM c-AMH is 0.538; the [RL+2RLR]/[R0], fraction-receptor occupancy, at 0.83 nM c-AMH stood at 0.654; the [RL+2RLR]/[R0], fraction-receptor occupancy, at 1.65 nM c-AMH stood at 0.789. In test [5], the [RL+2RLR]/[R0], fraction-receptor occupancy, at 3.30 nM c-AMH was found to be 0.834; the [RL+2RLR]/[R0], fraction-receptor occupancy, at 6.60 nM c-AMH came to 0.917; the [RL+2RLR]/[R0], fraction-receptor occupancy, at 13.21 nM c-AMH is 0.951; the [RL+2RLR]/[R0], fraction-receptor occupancy, at 26.41 nM c-AMH is 0.989. In test [5], the [RL+2RLR]/[R0], fraction-receptor occupancy, at 52.83 nM c-AMH is 1; the [RL+RLR]/[R0], fraction-maximal AMH binding, at 0.03 nM c-AMH turned out to be 0.043; the [RL+RLR]/[R0], fraction-maximal AMH binding, at 0.05 nM c-AMH stood at 0.088; the [RL+RLR]/[R0], fraction-maximal AMH binding, at 0.10 nM c-AMH came to 0.125. In test [5], the [RL+RLR]/[R0], fraction-maximal AMH binding, at 0.21 nM c-AMH is 0.203; the [RL+RLR]/[R0], fraction-maximal AMH binding, at 0.41 nM c-AMH was found to be 0.315; the [RL+RLR]/[R0], fraction-maximal AMH binding, at 0.83 nM c-AMH was 0.463; the [RL+RLR]/[R0], fraction-maximal AMH binding, at 1.65 nM c-AMH was 0.596. In addition, in test [5], the [RL+RLR]/[R0], fraction-maximal AMH binding, at 3.30 nM c-AMH worked out at 0.707; the [RL+RLR]/[R0], fraction-maximal AMH binding, at 6.60 nM c-AMH was found to be 0.854; the [RL+RLR]/[R0], fraction-maximal AMH binding, at 13.21 nM c-AMH was found to be 0.94; the [RL+RLR]/[R0], fraction-maximal AMH binding, at 26.41 nM c-AMH worked out at 0.965. This substance came in with a [RL+RLR]/[R0], fraction-maximal AMH binding, at 52.83 nM c-AMH in test [5] of 1.03.
